Test results reported in patent publication US20200283528A1.

B1: PRO1479 (scDb-scFv: 37-20-B03 sc09.1 / 38-02-A04 sc013 / 19-01-H04 sc03) (protein, from a related filing)
chain: DIQMTQSPASLSASVGDRVTITCQASQSIGTYLAWYQQKPGKPPKLLIYRAFILASGVPSRFSGSGSGTDFTLTISSLQPEDFATYYCQSNFYSDSTTIGPNAFGTGTKVTVLGGGGGSEVQLVESGGGLVQPGGSLRLSCAASGFSFSNSYWICWVRQAPGKCLEWIGCTFVGSSDSTYYANWAKGRFTISRDNSKNTVYLQMNSLRAEDTAVYYCARHPSDAVYGYANNLWGQGTLVTVSSGGGGSGGGGSGGGGSGGGGSIQMTQSPSSLSASVGDRVTITCQASQSINNVLAWYQQKPGKAPKLLIYRASTLASGVPSRFSGSGSGTDFTLTISSLQPEDFATYYCQSSYGNYGDFGCGTKVTVLGGGGGSEVQLVESGGGLVQPGGSLRLSCAASGFSFNSDYWIYWVRQAPGKGLEWIASIYGGSSGNTQYASWAQGRFTISRDNSKNTVYLQMNSLRAEDTAVYFCARGYVDYGGATDLWGQGTLVTVSSGGGGSGGGGSIQMTQSPSSLSASVGDRVTITCQSSESVYSNNQLSWYQQKPGQPPKLLIYDASDLASGVPSRFSGSGSGTDFTLTISSLQPEDFATYYCAGGFSSSSDTAFGGGTKLTVLGGGGGSGGGGSGGGGSGGGGSEVQLVESGGGLVQPGGSLRLSCAASGFSLSSNAMGWVRQAPGKGLEYIGIISVGGFTYYASWAKGRFTISRDNSKNTVYLQMNSLRAEDTATYFCARDRHGGDSSGAFYLWGQGTLVTVSS
B2: PRO1482 (scDb-scFv: 37-20-B03 sc09.1 / 38-02-A04 sc013 / 19-01-H04 sc03) (protein, from a related filing)
chain: DIQMTQSPSSLSASVGDRVTITCQASQSINNVLAWYQQKPGKAPKLLIYRASTLASGVPSRFSGSGSGTDFTLTISSLQPEDFATYYCQSSYGNYGDFGCGTKVTVLGGGGGSEVQLVESGGGLVQPGGSLRLSCAASGFSFNSDYWIYWVRQAPGKGLEWIASIYGGSSGNTQYASWAQGRFTISRDNSKNTVYLQMNSLRAEDTAVYFCARGYVDYGGATDLWGQGTLVTVSSGGGGSGGGGSGGGGSGGGGSIQMTQSPASLSASVGDRVTITCQASQSIGTYLAWYQQKPGKPPKLLIYRAFILASGVPSRFSGSGSGTDFTLTISSLQPEDFATYYCQSNFYSDSTTIGPNAFGTGTKVTVLGGGGGSEVQLVESGGGLVQPGGSLRLSCAASGFSFSNSYWICWVRQAPGKCLEWIGCTFVGSSDSTYYANWAKGRFTISRDNSKNTVYLQMNSLRAEDTAVYYCARHPSDAVYGYANNLWGQGTLVTVSSGGGGSGGGGSIQMTQSPSSLSASVGDRVTITCQSSESVYSNNQLSWYQQKPGQPPKLLIYDASDLASGVPSRFSGSGSGTDFTLTISSLQPEDFATYYCAGGFSSSSDTAFGGGTKLTVLGGGGGSGGGGSGGGGSGGGGSEVQLVESGGGLVQPGGSLRLSCAASGFSLSSNAMGWVRQAPGKGLEYIGIISVGGFTYYASWAKGRFTISRDNSKNTVYLQMNSLRAEDTATYFCARDRHGGDSSGAFYLWGQGTLVTVSS
B3: PRO1476 (scDb-scFv: 33-03-G02 sc03 / 38-02-A04 sc013 / 19-01-H04 sc03) (protein, from a related filing)
chain: DIQMTQSPSSLSASVGDRVTITCQASQSINNVLAWYQQKPGKAPKLLIYRASTLASGVPSRFSGSGSGTDFTLTISSLQPEDFATYYCQSSYGNYGDFGCGTKVTVLGGGGGSQSQLQESGPGLVKPSETLSLTCKASGFSFSSGYDMCWVRQPPGKGLEWIACVVAGSVDITYYASWAKGRVTISKDSSKNQVSLKLSSVTAADTAVYFCARKDAYSDAFNLWGQGTLVTVSSGGGGSGGGGSGGGGSGGGGSFQLTQSPSSLSASVGDRVTITCQASQSINDYLAWYQQKPGKSPKLLIYKASTLASGVPSRFSGSGSGTDFTLTISSLQPEDFATYYCQQGYIITDIDNVFGTGTKVTVLGGGGGSEVQLVESGGGLVQPGGSLRLSCAASGFSFSNSYWICWVRQAPGKCLEWIGCTFVGSSDSTYYANWAKGRFTISRDNSKNTVYLQMNSLRAEDTAVYYCARHPSDAVYGYANNLWGQGTLVTVSSGGGGSGGGGSIQMTQSPSSLSASVGDRVTITCQSSESVYSNNQLSWYQQKPGQPPKLLIYDASDLASGVPSRFSGSGSGTDFTLTISSLQPEDFATYYCAGGFSSSSDTAFGGGTKLTVLGGGGGSGGGGSGGGGSGGGGSEVQLVESGGGLVQPGGSLRLSCAASGFSLSSNAMGWVRQAPGKGLEYIGIISVGGFTYYASWAKGRFTISRDNSKNTVYLQMNSLRAEDTATYFCARDRHGGDSSGAFYLWGQGTLVTVSS
B4: PRO1430 (scDb-scFv: 37-20-B03 sc01 / 38-02-A04 sc013 / 19-01-H04 sc03) (protein, from a related filing)
chain: DIQMTQSPSSLSASVGDRVTITCQASQSIGTYLAWYQQKPGKAPKLLIYRAFILASGVPSRFSGSGSGTDFTLTISSLQPEDFATYYCQSNFYSDSTTIGPNAFGTGTKVTVLGGGGGSEVQLVESGGGLVQPGGSLRLSCAASGFSFSNSYWICWVRQAPGKCLEWIGCTFVGSSDSTYYANWAKGRFTISRDNSKNTVYLQMNSLRAEDTAVYYCARHPSDAVYGYANNLWGQGTLVTVSSGGGGSGGGGSGGGGSGGGGSIQMTQSPSSLSASVGDRVTITCQASQSINNVLAWYQQKPGKAPKLLIYRASTLASGVPSRFSGSGSGTDFTLTISSLQPEDFATYYCQSSYGNYGDFGCGTKVTVLGGGGGSQVQLQESGPGLVKPSETLSLTCKVSGFSFNSDYWIYWIRQPPGKGLEWIGSIYGGSSGNTQYASWAQGRVTISVDSSKNQFSLKLSSVTAADTAVYYCARGYVDYGGATDLWGQGTLVTVSSGGGGSGGGGSIQMTQSPSSLSASVGDRVTITCQSSESVYSNNQLSWYQQKPGQPPKLLIYDASDLASGVPSRFSGSGSGTDFTLTISSLQPEDFATYYCAGGFSSSSDTAFGGGTKLTVLGGGGGSGGGGSGGGGSGGGGSEVQLVESGGGLVQPGGSLRLSCAASGFSLSSNAMGWVRQAPGKGLEYIGIISVGGFTYYASWAKGRFTISRDNSKNTVYLQMNSLRAEDTATYFCARDRHGGDSSGAFYLWGQGTLVTVSS
B5: PRO1431 (scDb-scFv: 33-03-G02 sc18 / 38-02-A04 sc013 / 19-01-H04 sc03) (protein, from a related filing)
chain: DIQMTQSPSSLSASVGDRVTITCQASQSINDYLAWYQQKPGKAPKLLIYKASTLASGVPSRFSGSGSGTDFTLTISSLQPEDFATYYCQQGYIITDIDNVFGTGTKVTVLGGGGGSEVQLVESGGGLVQPGGSLRLSCAASGFSFSNSYWICWVRQAPGKCLEWIGCTFVGSSDSTYYANWAKGRFTISRDNSKNTVYLQMNSLRAEDTAVYYCARHPSDAVYGYANNLWGQGTLVTVSSGGGGSGGGGSGGGGSGGGGSIQMTQSPSSLSASVGDRVTITCQASQSINNVLAWYQQKPGKAPKLLIYRASTLASGVPSRFSGSGSGTDFTLTISSLQPEDFATYYCQSSYGNYGDFGCGTKVTVLGGGGGSQVQLQESGPGLVKPSETLSLTCKASGFSFSSGYDMCWVRQPPGKGLEWIACVVAGSVDITYYASWAKGRVTISKDSSKNQVSLKLSSVTAADTAVYYCARKDAYSDAFNLWGQGTLVTVSSGGGGSGGGGSIQMTQSPSSLSASVGDRVTITCQSSESVYSNNQLSWYQQKPGQPPKLLIYDASDLASGVPSRFSGSGSGTDFTLTISSLQPEDFATYYCAGGFSSSSDTAFGGGTKLTVLGGGGGSGGGGSGGGGSGGGGSEVQLVESGGGLVQPGGSLRLSCAASGFSLSSNAMGWVRQAPGKGLEYIGIISVGGFTYYASWAKGRFTISRDNSKNTVYLQMNSLRAEDTATYFCARDRHGGDSSGAFYLWGQGTLVTVSS
B6: PRO1473 (scDb-scFv: 33-03-G02 sc03 / 38-02-A04 sc013 / 19-01-H04 sc03) (protein, from a related filing)
chain: DFQLTQSPSSLSASVGDRVTITCQASQSINDYLAWYQQKPGKSPKLLIYKASTLASGVPSRFSGSGSGTDFTLTISSLQPEDFATYYCQQGYIITDIDNVFGTGTKVTVLGGGGGSEVQLVESGGGLVQPGGSLRLSCAASGFSFSNSYWICWVRQAPGKCLEWIGCTFVGSSDSTYYANWAKGRFTISRDNSKNTVYLQMNSLRAEDTAVYYCARHPSDAVYGYANNLWGQGTLVTVSSGGGGSGGGGSGGGGSGGGGSIQMTQSPSSLSASVGDRVTITCQASQSINNVLAWYQQKPGKAPKLLIYRASTLASGVPSRFSGSGSGTDFTLTISSLQPEDFATYYCQSSYGNYGDFGCGTKVTVLGGGGGSQSQLQESGPGLVKPSETLSLTCKASGFSFSSGYDMCWVRQPPGKGLEWIACVVAGSVDITYYASWAKGRVTISKDSSKNQVSLKLSSVTAADTAVYFCARKDAYSDAFNLWGQGTLVTVSSGGGGSGGGGSIQMTQSPSSLSASVGDRVTITCQSSESVYSNNQLSWYQQKPGQPPKLLIYDASDLASGVPSRFSGSGSGTDFTLTISSLQPEDFATYYCAGGFSSSSDTAFGGGTKLTVLGGGGGSGGGGSGGGGSGGGGSEVQLVESGGGLVQPGGSLRLSCAASGFSLSSNAMGWVRQAPGKGLEYIGIISVGGFTYYASWAKGRFTISRDNSKNTVYLQMNSLRAEDTATYFCARDRHGGDSSGAFYLWGQGTLVTVSS

Key:
[1] = molecular target: human PDL1 (recombinant, soluble) (human) (UniProt Q9NZQ7); experiment: PDL1/B7-1 competition ELISA; B7-1 coated, biotinylated PDL1 40 ng/ml
[2] = molecular target: human CD137-Fc chimeric protein (human) (UniProt Q07011); experiment: SPR Biacore T200; CD137-Fc captured; molecule as analyte
[3] = molecular target: human PDL1 (recombinant, soluble) (human) (UniProt Q9NZQ7); experiment: PDL1/PD-1 competition ELISA; PD-1 coated, biotinylated PDL1 1 ng/ml
[4] = molecular target: human PDL1 expressed on cells (human) (UniProt Q9NZQ7); experiment: cell-based or functional assay
[5] = molecular target: Fc tagged human PDL1 (human) (UniProt Q9NZQ7); experiment: SPR Biacore T200; PDL1-Fc captured; molecule 0.12-90 nM

Row | Binder | IC50 [1] [ng/mL] | rel. IC50 (IC50, Avelumab/IC50, test molecule) [1] | Kd [2] [nM] | koff [2] [s⁻¹] | kon [2] [M⁻¹ s⁻¹] | IC50 [3] [ng/mL] | rel. IC50 (IC50, Avelumab/IC50, test molecule) [3] | NF-AT potency assay IC50 (with HSA) [4] [ng/mL] | NF-AT potency assay rel. IC50 (IC50, Avelumab/IC50, test molecule) (with HSA) [4] | Kd [5] [nM] | koff [5] [s⁻¹] | kon [5] [M⁻¹ s⁻¹]
1 | B1 | 10.7 | 1.38 | 1.7 | 0.00054 | 330000 | 2.65 | 0.86 | 50.4 | 1.04 | 0.0092 | 3.9e-05 | 4.2e+06
2 | B2 | 8.18 | 1.51 | 1.1 | 0.00036 | 320000 | 1.78 | 1.24 | 54.8 | 0.68 | 0.0098 | 3.3e-05 | 3.4e+06
3 | B3 | 9.49 | 1.1 | 1.1 | 0.00037 | 350000 | 2.84 | 0.8 | 53.5 | 0.66 | 0.009 | 3.1e-05 | 3.4e+06
4 | B4 | 2.42 | 1.15 | 1.5 | 0.00071 | 460000 | 1.92 | 0.73 | 16.2 | 1.45 | 0.0045 | 2.4e-05 | 5.3e+06
5 | B5 | 3.31 | 0.84 | 1.7 | 0.00075 | 450000 | 2.75 | 0.51 | 9.83 | 3.73 | 0.014 | 4.5e-05 | 3.3e+06
6 | B6 | 8.89 | 1.49 | 2 | 0.0006 | 310000 | 4.14 | 0.56 | 35.2 | 1.11 | 0.0082 | 2.9e-05 | 3.6e+06
